Assay results published in paper PMC6101581.
Read-outs that look alike come from different tables or passages of the source.

Assays:
hUNG2 full-length [1] = target: T1, hUNG2 full-length (human, UniProt P13051 1-313); assay: fluorescence anisotropy
hUNG2 catalytic domain = hUNG2 catalytic domain (human, UniProt P13051 92-313); assay: fluorescence anisotropy
hUNG2 full-length [2] = target: T1, hUNG2 full-length; assay: fluorescence anisotropy; remark: listed apart in the source
RPA heterotrimer [3] = target: T2, RPA heterotrimer (UniProt P27694;P15927;P35244 1-616;1-270;1-121); assay: EMSA
T2 sequence (P27694 whole entry, chain 1 of 3): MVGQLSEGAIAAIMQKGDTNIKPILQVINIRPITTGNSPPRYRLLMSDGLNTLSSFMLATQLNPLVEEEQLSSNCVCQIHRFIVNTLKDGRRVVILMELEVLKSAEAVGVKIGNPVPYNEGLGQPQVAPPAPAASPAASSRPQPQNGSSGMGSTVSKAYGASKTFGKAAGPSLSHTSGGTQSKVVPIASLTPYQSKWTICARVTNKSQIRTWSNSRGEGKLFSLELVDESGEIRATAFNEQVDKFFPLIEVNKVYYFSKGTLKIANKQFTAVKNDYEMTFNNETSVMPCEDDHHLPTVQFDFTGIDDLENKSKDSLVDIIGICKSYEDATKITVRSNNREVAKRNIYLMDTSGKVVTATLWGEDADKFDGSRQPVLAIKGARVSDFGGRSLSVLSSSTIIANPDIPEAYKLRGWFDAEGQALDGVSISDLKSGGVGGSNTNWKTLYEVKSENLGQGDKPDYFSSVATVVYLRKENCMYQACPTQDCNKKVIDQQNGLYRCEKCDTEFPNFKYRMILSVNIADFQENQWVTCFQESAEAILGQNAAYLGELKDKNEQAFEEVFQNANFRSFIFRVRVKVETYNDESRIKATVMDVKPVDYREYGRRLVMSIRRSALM
T2 sequence (P15927 whole entry, chain 2 of 3): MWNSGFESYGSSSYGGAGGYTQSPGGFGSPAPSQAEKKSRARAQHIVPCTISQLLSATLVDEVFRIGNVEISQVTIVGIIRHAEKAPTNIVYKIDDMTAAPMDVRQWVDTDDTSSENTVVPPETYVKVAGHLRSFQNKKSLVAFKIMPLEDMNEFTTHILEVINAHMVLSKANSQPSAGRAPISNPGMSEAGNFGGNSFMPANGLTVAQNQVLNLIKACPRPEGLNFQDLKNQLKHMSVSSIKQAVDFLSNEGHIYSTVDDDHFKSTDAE
T2 sequence (P35244 whole entry, chain 3 of 3): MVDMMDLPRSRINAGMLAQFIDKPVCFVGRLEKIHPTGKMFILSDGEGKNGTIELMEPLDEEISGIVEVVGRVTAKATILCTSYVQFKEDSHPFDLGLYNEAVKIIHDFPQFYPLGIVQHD

RPA heterotrimer [4] = target: T2, RPA heterotrimer; assay: EMSA; remark: listed apart in the source

T1 sequence (P13051 whole entry, the tested form may be a part): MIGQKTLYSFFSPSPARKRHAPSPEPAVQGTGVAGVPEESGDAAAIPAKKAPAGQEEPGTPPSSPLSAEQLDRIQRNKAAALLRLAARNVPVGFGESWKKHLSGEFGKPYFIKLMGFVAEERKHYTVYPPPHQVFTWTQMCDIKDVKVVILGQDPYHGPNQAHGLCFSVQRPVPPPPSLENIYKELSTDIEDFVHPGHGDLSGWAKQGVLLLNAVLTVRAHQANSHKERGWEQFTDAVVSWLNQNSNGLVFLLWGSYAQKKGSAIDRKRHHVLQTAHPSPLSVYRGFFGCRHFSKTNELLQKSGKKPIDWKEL
Sequence of hUNG2 catalytic domain (P13051 92-313): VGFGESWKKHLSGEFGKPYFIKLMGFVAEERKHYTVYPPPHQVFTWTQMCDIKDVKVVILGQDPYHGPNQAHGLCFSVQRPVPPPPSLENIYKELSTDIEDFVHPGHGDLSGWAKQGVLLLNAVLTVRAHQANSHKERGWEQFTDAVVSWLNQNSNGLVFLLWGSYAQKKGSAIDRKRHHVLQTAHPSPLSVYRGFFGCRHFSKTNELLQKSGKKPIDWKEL

## CACGCGTGGCCCGGCAGTTATCCAGCACC (ssDNA) [29 nt ssDNA (oligo 14)]
hUNG2 full-length [1]
  binding signal: 3 fold higher affinity than N1 (29 bp dsDNA)

B1: 29 bp duplex (oligos 13/14) (dsDNA)
DNA 1: GGTGCTGGATAACTGCCGGGCCACGCGTG
DNA 2: CACGCGTGGCCCGGCAGTTATCCAGCACC
hUNG2 catalytic domain
  binding signal: 3 fold lower affinity than full-length hUNG2

B2: 29 bp duplex with 29 nt 5' ssDNA overhang (oligos 15/16) (mixed)
DNA 1: CACGCGTGGCCCGGCAGTTATCCAGCACCACTTAGCTATCGATTCCCGCATGCTCTGA
DNA 2: TCAGAGCATGCGGGAATCGATAGCTAAGT
hUNG2 full-length [2]
  binding result: binds

B3: 55 bp duplex U21/U45 with 32 nt 5' overhang (oligos 4/5) (mixed)
DNA 1: ATCGAGCTGGACACCATCACTCCATATTGGTCACTGCATGCTCTTCTTAGCTATCGATTCACCTGAGACCTTAGCTATCGATTCTCA
DNA 2: TGAGAATCGAUAGCTAAGGTCTCAGGTGAATCGAUAGCTAAGAAGAGCATGCAGT
modifications: two deoxyuridines in strand 2
RPA heterotrimer [3]
  binding result: binds

B4: 55 bp duplex U9/U33 with 32 nt 5' overhang (oligos 9/10) (mixed)
DNA 1: ATCGAGCTGGACACCATCACTCCATATTGGTCACTTAGCTATCGATTCCCGCATGCTCTTAGCTATCGATTCACCTGAGACTAGTCA
DNA 2: TGACTAGTCTCAGGTGAATCGAUAGCTAAGAGCATGCGGGAATCGAUAGCTAAGT
modifications: two deoxyuridines in strand 2
RPA heterotrimer [3]
  binding result: binds

B5: 55 bp duplex U9/U33 with 32 nt 3' overhang (oligos 18/19) (mixed)
DNA 1: ACTGATCAGAGTCCACTTAGCTATCGATTCTCGTACGCCCTTAGCTATCGATTCACTGGTTATACCTCACTACCACAGGTCGAGCTA
DNA 2: TGAATCGAUAGCTAAGGGCGTACGAGAATCGAUAGCTAAGTGGACTCTGATCAGT
modifications: two deoxyuridines in strand 2
RPA heterotrimer [4]
  binding result: binds
